Assay results published in PMC10786891, “Massively parallel profiling of RNA-targeting CRISPR-Cas13d”.
Where a chain is given by its changes, count along the chain named. Names may count otherwise.

T1: EsCas13d, nuclease-dead (Eubacterium siraeum, UniProt B0MS50, R295A;H300A;R849A;H854A)
T1 sequence: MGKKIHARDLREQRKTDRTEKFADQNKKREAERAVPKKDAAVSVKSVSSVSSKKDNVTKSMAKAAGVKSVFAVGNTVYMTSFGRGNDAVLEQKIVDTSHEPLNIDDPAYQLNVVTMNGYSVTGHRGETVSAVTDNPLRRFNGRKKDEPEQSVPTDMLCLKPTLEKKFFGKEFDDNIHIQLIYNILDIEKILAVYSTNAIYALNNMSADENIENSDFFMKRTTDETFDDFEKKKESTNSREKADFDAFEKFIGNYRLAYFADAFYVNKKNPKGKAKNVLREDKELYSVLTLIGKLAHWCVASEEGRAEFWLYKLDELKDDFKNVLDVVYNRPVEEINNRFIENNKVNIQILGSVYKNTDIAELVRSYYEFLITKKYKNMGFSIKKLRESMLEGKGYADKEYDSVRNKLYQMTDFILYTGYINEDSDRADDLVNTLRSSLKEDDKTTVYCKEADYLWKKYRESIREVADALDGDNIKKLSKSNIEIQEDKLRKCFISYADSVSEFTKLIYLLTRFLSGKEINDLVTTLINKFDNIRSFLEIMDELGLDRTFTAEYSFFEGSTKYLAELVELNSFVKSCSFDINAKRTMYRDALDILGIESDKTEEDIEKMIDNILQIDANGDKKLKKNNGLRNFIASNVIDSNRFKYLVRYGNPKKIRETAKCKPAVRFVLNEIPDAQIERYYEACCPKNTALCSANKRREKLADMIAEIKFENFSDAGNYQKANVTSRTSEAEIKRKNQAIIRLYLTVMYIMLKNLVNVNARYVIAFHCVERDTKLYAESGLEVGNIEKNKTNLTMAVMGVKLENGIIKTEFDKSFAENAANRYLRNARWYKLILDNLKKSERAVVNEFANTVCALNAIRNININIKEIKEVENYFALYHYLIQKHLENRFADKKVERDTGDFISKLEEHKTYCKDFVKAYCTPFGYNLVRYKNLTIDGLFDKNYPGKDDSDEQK

B1: target 1 C2A,G15A (mixed)
RNA 1: CACCCGUGCAAAAAUGCAGGGGUCUAAAACUGAGCGGAUAACCUCUCUAUGG
RNA 2: GGGAAUGGAUCCACAUCUACGAAUUCGUACCAUAGAAAGGUUAUCCGCUAACCGAGAUCGGAAGAGCACACGU
B2: target 1 insC 3' of 5,insG 3' of 1 (mixed)
RNA 1: B1 RNA 1
RNA 2: GGGAAUGGAUCCACAUCUACGAAUUCGUACCAUAGAGAGGUUAUCCGCCUCAGCCGAGAUCGGAAGAGCACACGU
B3: target 1 A1G,C2A (mixed)
RNA 1: B1 RNA 1
RNA 2: B1 RNA 2 with A37G, A51G
B4: target 1 C2A,C7U (mixed)
RNA 1: B1 RNA 1
RNA 2: B1 RNA 2 with A37G, C45U
B5: target 1 G5C,C7A (mixed)
RNA 1: B1 RNA 1
RNA 2: B1 RNA 2 with A37G, C45A, G47C, A50C
B6: target 1 insG 3' of 22,insA 3' of 15 (mixed)
RNA 1: B1 RNA 1
RNA 2: GGGAAUGGAUCCACAUCUACGAAUUCGUACGCAUAGAGAAGGUUAUCCGCUCACCGAGAUCGGAAGAGCACACGU
B7: target 1 insC 3' of 10 (mixed)
RNA 1: B1 RNA 1
RNA 2: GGGAAUGGAUCCACAUCUACGAAUUCGUACCAUAGAGAGGUUCAUCCGCUCACCGAGAUCGGAAGAGCACACGU
B8: target 1 A1C,U19G (mixed)
RNA 1: B1 RNA 1
RNA 2: B1 RNA 2 with U33G, A37G, A50C, A51C
B9: target 1 insC 3' of 5,insU 3' of 1 (mixed)
RNA 1: B1 RNA 1
RNA 2: B2 RNA 2 with G53U
B10: target 1 insC 3' of 5,insC 3' of 1 (mixed)
RNA 1: B1 RNA 1
RNA 2: B2 RNA 2 with G53C
B11: target 1 U19G (mixed)
RNA 1: B1 RNA 1
RNA 2: B1 RNA 2 with U33G, A37G, A50C
B12: target 1 insC 3' of 18,insA 3' of 11 (mixed)
RNA 1: B1 RNA 1
RNA 2: B6 RNA 2 with G31C, C32A, A33U, U34A, A35C, A40G, G42U, U43A
B13: target 1 insG 3' of 10,insG 3' of 4 (mixed)
RNA 1: B1 RNA 1
RNA 2: B2 RNA 2 with A43G, U44A, C45U, G47C, C48G, U50G, C51U, A52C, G53A
B14: target 1 U3C,U11G (mixed)
RNA 1: B1 RNA 1
RNA 2: B1 RNA 2 with A37G, U41G, U49C, A50C
B15: target 1 C7G,C22U (mixed)
RNA 1: B1 RNA 1
RNA 2: B1 RNA 2 with C30U, A37G, C45G, A50C
B16: target 1 insA 3' of 13,insA 3' of 8 (mixed)
RNA 1: B1 RNA 1
RNA 2: GGGAAUGGAUCCACAUCUACGAAUUCGUACCAUAGAGAGAGUUAUACCGCUCACCGAGAUCGGAAGAGCACACGU
B17: target 1 C6A,A16U (mixed)
RNA 1: B1 RNA 1
RNA 2: B1 RNA 2 with A36U, A37G, C46A, A50C
B18: target 1 C4A,U10A (mixed)
RNA 1: B1 RNA 1
RNA 2: B1 RNA 2 with A37G, U42A, C48A, A50C
B19: target 1 insA 3' of 13,insG 3' of 4 (mixed)
RNA 1: B1 RNA 1
RNA 2: B16 RNA 2 with A46C, C48G, G49C, C50G
B20: target 1 insU 3' of 14,insG 3' of 14 (mixed)
RNA 1: B1 RNA 1
RNA 2: B16 RNA 2 with G39U, A40G, U42G, A44U, U45A, A46U
B21: target 1 C6U,A18G (mixed)
RNA 1: B1 RNA 1
RNA 2: B1 RNA 2 with A34G, A37G, C46U, A50C
B22: target 1 insA 3' of 17,insG 3' of 6 (mixed)
RNA 1: B1 RNA 1
RNA 2: B16 RNA 2 with G37A, A38G, G39A, A40G, A46C, C48G
B23: target 1 insA 3' of 17,insU 3' of 15 (mixed)
RNA 1: B1 RNA 1
RNA 2: B16 RNA 2 with G37A, A38G, G39U, U42G, A44U, U45A, A46U
B24: target 1 insA 3' of 22,insG 3' of 3 (mixed)
RNA 1: B1 RNA 1
RNA 2: GGGAAUGGAUCCACAUCUACGAAUUCGUACACAUAGAGAGGUUAUCCGCUGCACCGAGAUCGGAAGAGCACACGU
B25: target 1 A9U,G17U (mixed)
RNA 1: B1 RNA 1
RNA 2: B1 RNA 2 with G35U, A37G, A43U, A50C
B26: target 1 insU 3' of 21,insC 3' of 8 (mixed)
RNA 1: B1 RNA 1
RNA 2: B24 RNA 2 with A31C, C32U, G48C, C49G, U50C, G51U
B27: target 1 insG 3' of 16,insA 3' of 7 (mixed)
RNA 1: B1 RNA 1
RNA 2: B16 RNA 2 with A38G, G39A, A40G, A46C, C47A
B28: target 1 C2U,C22U (mixed)
RNA 1: B1 RNA 1
RNA 2: B1 RNA 2 with C30U, A37G, A50U
B29: target 1 A18G,U19A (mixed)
RNA 1: B1 RNA 1
RNA 2: B1 RNA 2 with U33A, A34G, A37G, A50C
B30: target 1 insC 3' of 20,insG 3' of 9 (mixed)
RNA 1: B1 RNA 1
RNA 2: B6 RNA 2 with G31C, C32A, A33C, A40G, G42U, U44A, A45G
B31: target 1 insG 3' of 8,insC 3' of 8 (mixed)
RNA 1: B1 RNA 1
RNA 2: B16 RNA 2 with A40G, G41U, U43A, A44U, U45G, A46C
B32: target 1 C6U,G15A (mixed)
RNA 1: B1 RNA 1
RNA 2: B1 RNA 2 with C46U, A50C
B33: target 1 U3A,G15A (mixed)
RNA 1: B1 RNA 1
RNA 2: B1 RNA 2 with U49A, A50C
B34: target 1 U8A,A9G (mixed)
RNA 1: B1 RNA 1
RNA 2: B1 RNA 2 with A37G, A43G, U44A, A50C

Biological target: T1, EsCas13d, nuclease-dead
Assay: crRNA (strand 1, pre-loaded); Mg2+; 40 mM Tris-HCl pH 7.5, 150 mM NaCl, 6 mM MgCl2, 1 mM DTT, 0.1% Tween-20, 0.2 mg/ml BSA; 25 C; 10 min per concentration, then washed
Conditions: tags: His6-TwinStrep-SUMO cleaved; N-terminal SNAP kept (SNAP-Surface 488); label: 3' end held by stalled T7 RNA polymerase

Binder | Kd [nM]
B1 | 20.2 ± 0.9
B2 | 8.4 ± 0.6
B3 | 5.2 ± 0.32
B4 | 5.2 ± 0.4
B5 | 21.2 ± 1.4
B6 | 17.2 ± 1.6
B7 | 15.5 ± 0.9
B8 | ~80
B9 | 9.61 ± 0.26
B10 | 19.6 ± 3.4
B11 | 48 ± 5
B12 | 74 ± 9
B13 | 35 ± 7
B14 | 35 ± 4
B15 | 13.7 ± 0.7
B16 | 4.8 ± 0.23
B17 | 44 ± 4

Binder | Kd [nM]
B18 | 5.3 ± 0.4
B19 | 3.04 ± 0.19
B20 | 44 ± 10
B21 | 54 ± 18
B22 | 19.4 ± 0.8
B23 | 12 ± 4
B24 | 10.8 ± 0.8
B25 | 30 ± 4
B26 | 71 ± 15
B27 | 14.5 ± 0.9
B28 | 26 ± 6
B29 | 98 ± 25
B30 | 10.2 ± 0.8
B31 | 12.9 ± 0.5
B32 | 11.9 ± 0.5
B33 | 20 ± 4
B34 | 19.3 ± 1
